According to patent publication US20230212319A1, “NOVEL ANTIGEN BINDING DOMAINS AND SYNTHETIC ANTIGEN RECEPTORS INCORPORATING THE SAME” (University of Southern California, priority 2020, published 2023):

B1: 22147 (protein)
chain: MALPVTALLLPLALLLHAARPACEVQLLESGGGLIQPGGSLRLSCAASGFTFSSHAMTWVRQAPGKGLEWVSAISGSGDYTHYADSVKGRFTISRDNSKNTVYLQMNSLRAEDSAVYYCAKDEDGGSLLGHRGQGTLVTVSSGTGGGGSGGGGSGGGGSEFDIQMTQSPSSLSASVGDRVTITCRASQDISNYLNWYQQKPGKAVKLLIYYTSILHSGVPSRFSGSGSGTDYTLTISSLQPEDFATYFCQQGNTLPWTFGGGTKVEIKLEADVSPKPTIFLPSIAETKLQKAGTYLCLLEKFFPDVIKIHWQEKKSNTILGSQEGNTMKTNDTYMKFSWLTVPEKSLDKEHRCIVRHENNKNGVDQEIIFPPIKTDVITMDPKDNCSKDANDTLLLQLTNTSAYYMYLLLLLKSVVYFAIITCCLLRRTAFCCNGEKSRAKRSGSGATNFSLLKQAGDVEENPGPTSMDWIWRILFLVGAATGAHSGPQVQLQESGGGLAQAGGSLRLSCAASGRTFSMGWFRQAPGKEREFVAAITYSGGSPYYASSVRGRFTISRDNAKNTVYLQMNSLKPEDTAVYYCAANPTYGSDWNAENWGQGTQVTVSSGSGGGGSGGGGSGGGGSFEVQLVESGGGLVKPGGSLKLSCAASGFAFSIYDMSWVRQAPGKGLEWVAYISSGGGTTYYPDTVKGRFTISRDNAKNTLYLQMSSLRAEDTAMYYCARHSGYGSSYGVLFAYWGQGTLVTVSSTRPHTKPSVFVMKNGTNVACLVKEFYPKDIRINLVSSKKITEFDPAIVISPSGKYNAVKLGKYEDSNSVTCSVQHDNKTVHSTDFEVKTDSTDHVKPKETENTKQPSKSCHKPKAIVHTEKVNMMSLTVLGLRMLFAKTVAVNFLLTAKLFFLRAKRSGSGVKQTLNFDLLKLAGDVESNPGPSRGHMTEYKPTVRLATRDDVPRAVRTLAAAFADYPATRHTVDPDRHIERVTELQELFLTRVGLDIGKVWVADDGAAVAVWTTPESVEAGAVFAEIGPRMAELSGSRLAAQQQMEGLLAPHRPKEPAWFLATVGVSPDHQGKGLGSAVVLPGVEAAERAGVPAFLETSAPRNLPFYERLGFTVTADVEVPEGPRTWCMTRKPGA
B2: 22165 (protein)
chain: MALPVTALLLPLALLLHAARPACEVQLLESGGGLIQPGGSLRLSCAASGFTFSSHAMTWVRQAPGKGLEWVSAISGSGDYTHYADSVKGRFTISRDNSKNTVYLQMNSLRAEDSAVYYCAKDEDGGSLLGHRGQGTLVTVSSGTGGGGSGGGGSGGGGSEFDIQMTQSPSSLSASVGDRVTITCKASDHINNWLAWYQQKPGQAPKLLIYGATTLETGVPSRFSGSGSGTDYTLTISSLQPEDFATYYCQQSWNTPWTFGQGTKLEIKRLEDLKNVFPPEVAVFEPSEAEISHTQKATLVCLATGFYPDHVELSWWVNGKEVHSGVCTDPQPLKEQPALNDSRYCLSSRLRVSATFWQNPRNHFRCQVQFYGLSENDEWTQDRAKPVTQIVSAEAWGRADCGFTSESYQQGVLSATILYEILLGKATLYAVLVSALVLMAMVKRKDSRGRAKRSGSGATNFSLLKQAGDVEENPGPTSATMDWIWRILFLVGAATGAHSGPEVQLVESGGGLVQAGGSLRLSCAASGRTFSMGWFRQAPGKEREFVAAITYSGGSPYYADSVKGRFTISRDNAKNTVYLQMNSLKPEDTAVYYCAANPTYGSDWNAENWGQGTQVTVSSGSGGGGSGGGGSGGGGSFEQVQLQQPGAELVKPGASVKMSCKASGYAFSSYWINWMKQKPGQGLEWIGQIYPGDGDTNYNGKFKGRATLTADTSSSTAYMQLSSLTSEDSAVYFCARSITTVVGCAMDYWGQGTSVTVSSTRIQNPDPAVYQLRDSKSSDKSVCLFTDFDSQTNVSQSKDSDVYITDKCVLDMRSMDFKSNSAVAWSNKSDFACANAFNNSIIPEDTFFPSPESSCDVKLVEKSFETDTNLNFQNLSVIGFRILLLKVAGFNLLMTLRLWSSRAKRSGSGVKQTLNFDLLKLAGDVESNPGPSRGHMTEYKPTVRLATRDDVPRAVRTLAAAFADYPATRHTVDPDRHIERVTELQELFLTRVGLDIGKVWVADDGAAVAVWTTPESVEAGAVFAEIGPRMAELSGSRLAAQQQMEGLLAPHRPKEPAWFLATVGVSPDHQGKGLGSAVVLPGVEAAERAGVPAFLETSAPRNLPFYERLGFTVTADVEVPEGPRTWCMTRKPGA
B3: 22078 (protein)
chain: MALPVTALLLPLALLLHAARPQLQLQESGPGLVKPSETLSLTCTVSGDSISSGDYYWGWIRQPPGKGLEWIGHIYYSGVTYYNPSLKSRVTISVDTSRNQFSLKLSSVTAADTAVYYCTREDSSNWRSRGQGTLVTVSSLESGGGGSFEEVQLLESGGGLVQPGGSLRLSCAASGFTFSSYAMSWVRQAPGKGLEWVSSISGSGDYIYYADSVKGRFTISRDISKNTLYLQMNSLRAEDTAVYYCAKEGTGANSSLADYRGQGTLVTVSSTRASTKGPSVFPLAPSSKSTSGGTAALGCLVKDYFPEPVTVSWNSGALTSGVHTFPAVLQSSGLYSLSSVVTVPSSSLGTQTYICNVNHKPSNTKVDKRVEPKSCEVKTDSTDHVKPKETENTKQPSKSCHKPKAIVHTEKVNMMSLTVLGLRMLFAKTVAVNFLLTAKLFFLRAKRSGSGVKQTLNFDLLKLAGDVESNPGPSRGHMTEYKPTVRLATRDDVPRAVRTLAAAFADYPATRHTVDPDRHIERVTELQELFLTRVGLDIGKVWVADDGAAVAVWTTPESVEAGAVFAEIGPRMAELSGSRLAAQQQMEGLLAPHRPKEPAWFLATVGVSPDHQGKGLGSAVVLPGVEAAERAGVPAFLETSAPRNLPFYERLGFTVTADVEVPEGPRTWCMTRKPGA
B4: 22087 (protein)
chain: MALPVTALLLPLALLLHAARPQVQLVESGGGLVQPGGSLRLSCAASGFTFTNHAMSWVRQAPGKGLELVSSISGNGRTTYYADSVKGRFTISRDISKNTLDLQMNSLRAEDTAVYYCAKDGGETLVDSRGQGTLVTVSSLEGSGGGGSGGGGSGEDLKNVFPPEVAVFEPSEAEISHTQKATLVCLATGFYPDHVELSWWVNGKEVHSGVCTDPQPLKEQPALNDSRYCLSSRLRVSATFWQNPRNHFRCQVQFYGLSENDEWTQDRAKPVTQIVSAEAWGRADCGFTSESYQQGVLSATILYEILLGKATLYAVLVSALVLMAMVKRKDSRGRAKRSGSGATNFSLLKQAGDVEENPGPTSMDWIWRILFLVGAATGAHSFEEVQLLESGGGLVQPGGSLRLSCAASGFTFSSYAMSWVRQAPGKGLEWVSSISGSGDYIYYADSVKGRFTISRDISKNTLYLQMNSLRAEDTAVYYCAKEGTGANSSLADYRGQGTLVTVSSTRGSIPEDTFFPSPESSCDVKLVEKSFETDTNLNFQNLSVIGFRILLLKVAGFNLLMTLRLWSS
B5: 22089 (protein)
chain: MALPVTALLLPLALLLHAARPQLQLQESGPGLVKPSETLSLTCTVSGDSISSGDYYWGWIRQPPGKGLEWIGHIYYSGVTYYNPSLKSRVTISVDTSRNQFSLKLSSVTAADTAVYYCTREDSSNWRSRGQGTLVTVSSLEGSGRADCGFTSESYQQGVLSATILYEILLGKATLYAVLVSALVLMAMVKRKDSRGRAKRSGSGATNFSLLKQAGDVEENPGPTSMDWIWRILFLVGAATGAHSFEVQLLESGGGLIQPGGSLRLSCAASGFTFSSHAMTWVRQAPGKGLEWVSAISGSGDYTHYADSVKGRFTISRDNSKNTVYLQMNSLRAEDSAVYYCAKDEDGGSLLGHRGQGTLVTVSSTRIQNPDPAVYQLRDSKSSDKSVCLFTDFDSQTNVSQSKDSDVYITDKCVLDMRSMDFKSNSAVAWSNKSDFACANAFNNSIIPEDTFFPSPESSCDVKLVEKSFETDTNLNFQNLSVIGFRILLLKVAGFNLLMTLRLWSSRAKRSGSGVKQTLNFDLLKLAGDVESNPGPSRGHMTEYKPTVRLATRDDVPRAVRTLAAAFADYPATRHTVDPDRHIERVTELQELFLTRVGLDIGKVWVADDGAAVAVWTTPESVEAGAVFAEIGPRMAELSGSRLAAQQQMEGLLAPHRPKEPAWFLATVGVSPDHQGKGLGSAVVLPGVEAAERAGVPAFLETSAPRNLPFYERLGFTVTADVEVPEGPRTWCMTRKPGA

test system: L363 cells; experiment: JNG assay, co-culture with L363 cells; type: cell-based; settings: co-culture with L363
How it was run: (§1)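 Jurkat-NFAT-GFP (JNG) cells stably expressing SAR constructs via lentiviral transduction and puromycin/blasticidin selection were cocultured with target cells at E:T ~1:2 for ~4–18 h. NFAT-driven GFP was measured by FACS versus parental JNG cells; scores +/- to 5+ denote ~5–50% GFP-positive cells.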

Molecule | NFAT-GFP ASSAY: L363
B1 | + (refer to approximately 5%, 10%, 20%, 30%, 40% and 50% GFP positive cells)
B2 | Raji (+), L363 (+) (refer to approximately 5%, 10%, 20%, 30%, 40% and 50% GFP positive cells)
B3 | +/- (refer to approximately 5%, 10%, 20%, 30%, 40% and 50% GFP positive cells)
B4 | 2+ (refer to approximately 5%, 10%, 20%, 30%, 40% and 50% GFP positive cells)
B5 | 2+ (refer to approximately 5%, 10%, 20%, 30%, 40% and 50% GFP positive cells)

test system: RAJI cells; experiment: JNG assay, co-culture with RAJI cells; type: cell-based; settings: JNG cells expressing construct, co-culture with Raji
How it was run: as §1

Molecule | NFAT-GFP ASSAY: Raji
B1 | + (refer to approximately 5%, 10%, 20%, 30%, 40% and 50% GFP positive cells)
B2 | Raji (+), L363 (+) (refer to approximately 5%, 10%, 20%, 30%, 40% and 50% GFP positive cells)
B3 | +/- (refer to approximately 5%, 10%, 20%, 30%, 40% and 50% GFP positive cells)
B4 | + (refer to approximately 5%, 10%, 20%, 30%, 40% and 50% GFP positive cells)
B5 | + (refer to approximately 5%, 10%, 20%, 30%, 40% and 50% GFP positive cells)
